Data reported in US20250276057A1.

Target: IgE antibodies in four Pru p 7 reactive human sera
Experiment: ImmunoCAP IgE inhibition, inhibitor in solution at 20 ug/mL, rPru p 7 on solid phase

percent inhibition of IgE binding to rPru p 7 (fourth serum): 80%
B1: recombinant Cup s GRPb (protein)
chain: AQIDCDKECNRRCSKASLHDRCLKYCGICCEKCHCVPPGTAGNEDVCPCYAHLKNSKGGHKCP
